Test results taken from patent publication US20170281764A1.

What was measured:
[1] = molecular target: CD155 on K562 cells (human) (UniProt P15151); assay: flow cytometry of K562 cells stained with APC-labelled anti-CD155 (clone SKII.4 per paragraph 220); percent of cells in the marker gate from about 2x10^1 to 10^4
[2] = molecular target: human TIGIT on cells (Jurkat-TIGIT cells; human T cells, NK cells and other blood cells) (human) (UniProt Q495A1); assay: flow cytometry of human PBMCs, PE anti-TIGIT (clone MBSA43 per paragraph 220) against A488 anti-CD56; CD56+ TIGIT+ gate, unit not given; right panel (third of 3 donors)
human TIGIT on cells (Jurkat-TIGIT cells; human T cells, NK cells and other blood cells) (human), sequence (Q495A1 22-244): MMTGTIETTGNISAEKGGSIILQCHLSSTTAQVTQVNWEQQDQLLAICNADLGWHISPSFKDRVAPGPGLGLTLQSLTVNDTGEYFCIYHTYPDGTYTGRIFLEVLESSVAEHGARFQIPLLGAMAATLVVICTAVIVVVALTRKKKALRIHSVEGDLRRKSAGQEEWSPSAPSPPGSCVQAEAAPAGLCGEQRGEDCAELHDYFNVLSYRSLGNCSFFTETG

[3] = molecular target: human TIGIT on cells (Jurkat-TIGIT cells; human T cells, NK cells and other blood cells) (human) (UniProt Q495A1); assay: flow cytometry of human PBMCs, PE anti-TIGIT (clone MBSA43 per paragraph 220) against A488 anti-CD56; CD56+ TIGIT+ gate, unit not given; middle panel (second of 3 donors)
[4] = molecular target: human TIGIT on cells (Jurkat-TIGIT cells; human T cells, NK cells and other blood cells) (human) (UniProt Q495A1); assay: flow cytometry of human PBMCs, PE anti-TIGIT (clone MBSA43 per paragraph 220) against A488 anti-CD56; CD56+ TIGIT+ gate, unit not given; left panel (first of 3 donors)

% CD155 [1] [%] | TIGIT+ NK Cells [2] | TIGIT+ NK Cells [3] | TIGIT+ NK Cells [4] | Substance
98.5 | – | – | – | CD155 - APC (antibody)
– | 5.47 | 8.03 | 4.84 | anti-human TIGIT antibody clone MBSA43 (commercial; eBiosciences / BioLegend)
